Among the data in PMC12557600 are Kd values, retold here.

What all share (test): EMSA
What all share (details): N16 of strand 1 = tetrahydrofuran (THF) abasic site analog; EMSA: 50 mM Tris pH 8.0, 1 mM EDTA, 0.2 mg/ml BSA, 50 mg/ml sucrose, 0.5 mg/ml bromophenol blue, 1 mM DTT; 2 nM DNA, at least 20 min; 10% 59:1 native gel …
(In general: In EMSA bound probe runs differently from free probe, usually more slowly.)

The target in series [1] is APE1 N174A N174A (Homo sapiens) (UniProt P27695).
The target in series [2] is APE1 N174D N174D (Homo sapiens) (UniProt P27695).
Series [3] deals with APE1 N174K N174K (Homo sapiens) (UniProt P27695).
The next series deals with APE1 WT (Homo sapiens) (UniProt P27695).
Sequence of APE1 WT (Homo sapiens) (P27695 whole entry): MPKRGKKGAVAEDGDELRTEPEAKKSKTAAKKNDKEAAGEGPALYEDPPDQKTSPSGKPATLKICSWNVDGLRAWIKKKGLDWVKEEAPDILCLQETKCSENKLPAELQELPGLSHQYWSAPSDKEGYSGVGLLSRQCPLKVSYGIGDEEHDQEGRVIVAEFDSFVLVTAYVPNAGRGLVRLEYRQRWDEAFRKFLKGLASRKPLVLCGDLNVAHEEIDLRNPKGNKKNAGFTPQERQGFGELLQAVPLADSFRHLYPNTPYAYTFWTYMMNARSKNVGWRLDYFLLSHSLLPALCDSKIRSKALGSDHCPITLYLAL

Sequence of APE1 N174D N174D (Homo sapiens) (P27695 whole entry N174D): as the sequence (P27695 whole entry) above, with N174D counted along it
Sequence of APE1 N174A N174A (Homo sapiens) (P27695 whole entry N174A): as the sequence (P27695 whole entry) above, with N174A counted along it
Sequence of APE1 N174K N174K (Homo sapiens) (P27695 whole entry N174K): as the sequence (P27695 whole entry) above, with N174K counted along it

Regarding “CGTTCGCTGATGCGCNCGACGGATCCGCAT / ATGCGGATCCGTCGAGCGCATCAGCGAACG [30-bp THF AP-DNA]”, the Kd (as a rule, the equilibrium constant for the complex coming apart) is 44 nM in series [1], 13 nM in series [2], 17 nM in series [3] and 0.9 nM with APE1 WT (Homo sapiens).
